Assay results as given in patent US20220073619A1 (IMCHECK THERAPEUTICS, published 2022).
Where two headings read alike, the source gives them in different places. One block for each binder: values may come before it.

Legend:
[1] = biological target: Human BTN3A, membrane displayed on cells (human PBMCs, Daudi cells, SKOV-3 cells) (human), O00481; experiment: cell-based or functional assay
[2] = biological target: T1, Human BTN3A1 His-tagged antigen (Sino Biological Cat. No. 15973-H08H) (human, UniProt O00481 30-254); experiment: SPR Biacore T200, single cycle kinetics, BTN3A1-His captured on anti-His CM5 chip, F(ab′)2 as analyte, bivalent analyte model (kd 1), 25 C
T1 construct: Bought recombinant protein; also called recombinant human BTN3A1-His; not shown: His tag
T1 sequence (O00481 30-254 limits assumed): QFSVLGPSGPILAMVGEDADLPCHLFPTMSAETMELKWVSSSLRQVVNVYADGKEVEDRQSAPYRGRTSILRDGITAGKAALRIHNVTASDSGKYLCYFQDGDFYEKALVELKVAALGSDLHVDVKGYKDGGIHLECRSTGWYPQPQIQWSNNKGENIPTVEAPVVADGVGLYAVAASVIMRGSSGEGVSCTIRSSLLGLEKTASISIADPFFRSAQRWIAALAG
Experimental: (§1) All single cycle kinetic experiments were run at 25° C. with HBS-P+ running buffer (pH 7.4) containing 0.1% BSA (GE Healthcare, Little Chalfont, UK).
(§2) Human BTN3A1 His-tagged antigen (Sino Biological, Beijing, China) was diluted in running buffer to a final concentration of 0.4 μg/mL. At the start of each cycle, BTN3A1-His was captured onto Fc2 of CM5 sensor chip pre-coupled using a His capture kit (GE Healthcare, Little Chalfont, UK) with standard amine chemistry at a flow rate of 10 μL/min. An immobilization level (RL) of ˜17 RU or 8 RU, the different theoretical values to obtain a RMax of ˜25 RU was used for the analytes Fab and F(ab′)₂ respectively. The surface was then allowed to stabilize. Single cycle kinetics data was obtained with the purified samples (Fab and F(ab′)₂)) at a flow rate of 40 μL/min to minimize any potential mass transfer effects. The signal from the reference channel Fc1 (no antigen capture) was subtracted from that of Fc2 to correct for differences in non-specific binding to the reference surface. […] The signal for BTN3A1-His blank runs (no analyte) were subtracted to correct for differences in surface stability. The association phase for the five injections of increasing concentrations was monitored for 240 seconds each time and a single dissociation phase was measured for 2000 seconds following the last injection of analyte. […]

[3] = biological target: T1, Human BTN3A1 His-tagged antigen (Sino …); experiment: SPR Biacore T200, single cycle kinetics, BTN3A1-His captured on anti-His CM5 chip, F(ab′)2 as analyte, bivalent analyte model (kd 2), 25 C
Experimental: as §1, §2

[4] = biological target: T1, Human BTN3A1 His-tagged antigen (Sino …); experiment: SPR Biacore T200, single cycle kinetics, BTN3A1-His captured on anti-His CM5 chip, F(ab′)2 as analyte, bivalent analyte model (ka 1), 25 C
Experimental: as §1, §2

[5] = biological target: T1, Human BTN3A1 His-tagged antigen (Sino …); experiment: SPR Biacore T200, single cycle kinetics, BTN3A1-His captured on anti-His CM5 chip, F(ab′)2 as analyte, bivalent analyte model (kd 1), 25 C; remark: listed apart in the source
Experimental: (§3) Human BTN3A1 His-tagged antigen (Sino Biological, Beijing, China) was diluted in running buffer to a final concentration of 0.4 μg/mL. At the start of each cycle, human BTN3A1-His was captured onto Fc2 of CM5 sensor chip pre-coupled using a His capture kit (GE Healthcare, Little Chalfont, UK) with standard amine chemistry at a flow rate of 10 μL/min. An immobilization level (RL) of ˜34 RU, 16 RU or 11 RU, the different theoretical values to obtain a RMax of ˜50 RU was used for the analytes Fab, F(ab′)₂ and IgG respectively. The surface was then allowed to stabilize. Single cycle kinetic data was obtained with the purified samples (Fab, F(ab′)₂ and IgG) at a flow rate of 40 μL/min to minimize any potential mass transfer effects. The signal from the reference channel Fc1 (no antigen capture) was subtracted from that of Fc2 to correct for differences in non-specific binding to the reference surface. The signal for human BTN3A1-His blank runs (no analyte) were subtracted to correct for differences in surface stability. The association phase for the five injections of increasing concentrations was monitored for 240 seconds each time and a single dissociation phase was measured for 1400 seconds following the last injection of analyte. Regeneration of the chip surface was conducted using two injections of 10 mM glycine-HCL pH 1.5 followed by a stabilization period of 240 seconds.

[6] = biological target: T1, Human BTN3A1 His-tagged antigen (Sino …); experiment: BLI OctetRed96, F(ab′)2 loaded on FAB2G (anti-human CH1) sensors, human BTN3A1 as analyte 1.87-60 nM, 1:1 model, 30 C
Experimental: All runs (including loading, equilibration, association/dipping of sensors into analyte, dissociation and regeneration) were performed in black 96-well plates (Greiner) at 30° C. with shaking 1000 rpm using an OctetRed96 (ForteBio). […] The association of antibody or fragments with various concentrations of human BTN3A1 (60, 30, 15, 7.5, 3.75 and 1.87 nM) was monitored for 300 s, and the dissociation was followed for typically 500 s in kinetic buffer. Fitting of the data and constant measurements were performed with the Octet Red system software (version 7.1) using the 1:1 model. A control with an irrelevant antibody was used in order to assess the absence of non-specific binding of the target protein.

[7] = biological target: T1, Human BTN3A1 His-tagged antigen (Sino …); experiment: SPR Biacore T200, single cycle kinetics, BTN3A1-His captured on anti-His CM5 chip, F(ab′)2 as analyte, bivalent analyte model (kd 2), 25 C; remark: listed apart in the source
Experimental: as §3

[8] = biological target: T1, Human BTN3A1 His-tagged antigen (Sino …); experiment: SPR Biacore T200, single cycle kinetics, BTN3A1-His captured on anti-His CM5 chip, F(ab′)2 as analyte, bivalent analyte model (ka 1), 25 C; remark: listed apart in the source
Experimental: as §3

% CD107+ of Vγ9Vδ2 T cells, co-culture with Daudi cells, fragment at 10 µg/mL [1]: 40.8%
koff [2]: 0.00112 s⁻¹
kd 2 [3]: 34.1 s⁻¹
kon [4]: 213000 M⁻¹ s⁻¹
B1: Chimeric 103.2 F(ab′)2 fragment (other)
VH: QVQMQQSGAEVVRPGTSVKVSCKASGYAFTSYLIHWIKQRPGQGLEWIGVINPRSGDSHYNEKFKDRTTLTADQSSSTAYMQLSSLTSDDSAVYFCARSDYGAYWGQGTLVTVSS
VL: DIVLTQSPVTLSVTPGDSVSLSCRASQSISNNLHWYRQKSHESPRLLIKYASQSIFGIPSRFSGSGSGTEFTLSINSVETEDFGIYFCQQSNSWPHTFGTGTKLELK

koff [5]: 0.00162 s⁻¹
% CD25+ of Vγ9Vδ2 T cells within PBMCs, 67 nM, 5 days [1]: 43.2%
% CTV dilution of Vγ9Vδ2 T cells within PBMCs, 67 nM, 5 days [1]: 42%
EC50 (nM) in Vγ9Vδ2 T cell degranulation assay (CD107) against Daudi [1]: 0.0005 nM
EC50 (nM) in Vγ9Vδ2 T cell degranulation assay (CD107) against SKOV-3 [1]: 0.0005 nM
Kd [6]: 1230 pM
koff [6]: 0.000243 s⁻¹
kon [6]: 198000 M⁻¹ s⁻¹
kd 2 [7]: 35.9 s⁻¹
kon [8]: 689000 M⁻¹ s⁻¹
B2: Humanized 103.2 (hu103.2) F(ab′)2 fragment (other)
VH: QVQMQQSGAEVKKPGASVKVSCKASGYAFTSYLIHWIKQRPGQGLEWIGVINPRSGDSHYNEKFKDRVTMTADQSISTAYMELSRLRSDDTAVYYCARSDYGAYWGQGTLVTVSS
VL: EIVLTQSPATLSVSPGERATLSCRASQSISNNLHWYQQKPGQAPRLLIKYASQSAFGIPARFSGSGSGTEFTLTISSLQSEDFAVYFCQQSNSWPHTFGQGTKLEIK
